Experimental data published in patent US20230242651A1 (published 2023).

T1: human interleukin-23 receptor (IL23R) (human, UniProt Q5VWK5 24-355, limits assumed)
T1 construct: also called human IL23R
T1 sequence (looked up): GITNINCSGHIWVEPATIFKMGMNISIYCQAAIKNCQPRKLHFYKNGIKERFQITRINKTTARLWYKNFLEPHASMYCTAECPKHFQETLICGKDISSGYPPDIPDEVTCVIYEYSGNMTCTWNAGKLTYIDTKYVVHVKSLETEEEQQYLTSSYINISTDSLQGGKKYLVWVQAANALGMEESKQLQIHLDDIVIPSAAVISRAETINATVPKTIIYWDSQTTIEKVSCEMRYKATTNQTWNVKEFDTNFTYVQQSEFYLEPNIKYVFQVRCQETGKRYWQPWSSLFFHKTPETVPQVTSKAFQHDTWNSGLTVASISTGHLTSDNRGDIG


What was measured:
[1] = molecular target: T1, human interleukin-23 receptor (IL23R); assay: SPR, scFv
Summary of the method: (§1)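 Humanized rabbit variable domains were made as single-chain variable fragments (scFv) on consensus germline framework pairs, with or without a λ-cap (Vκ framework IV replaced by a Vλ germline sequence). They were expressed in E. coli as inclusion bodies, solubilized and refolded in a generic refolding buffer. Affinity for human IL23R was measured by surface plasmon resonance, giving rate constants and dissociation constant, or the λ-capped over uncapped dissociation-constant ratio.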

[2] = molecular target: T1, human interleukin-23 receptor (IL23R); assay: SPR, scFv (summary table)
Summary of the method: as §1

[3] = molecular target: T1, human interleukin-23 receptor (IL23R); assay: SPR; KD of the capped scFv over KD of its uncapped counterpart
Summary of the method: as §1

| Kd [1] [pM] | koff [1] [s⁻¹] | kon [1] [M⁻¹ s⁻¹] | Kd [2] [pM] | Ratio (capped/uncapped) of KD [3] | Binder |
| --- | --- | --- | --- | --- | --- |
| 74.1 | 0.000102 | 1.38e+06 | 74.1 |  | Vκ2/VH2 consensus λ-capped, human IL23R specific scFv (scFv, scFv VL-linker-VH, made in E. coli; also called Vκ2VH2 capped) scFv: DIVMTQSPLSLPVTPGEPASISCQASENIYSFLAWYLQKPGQSPQLLIYSASKLAAGVPDRFSGSGSGTDFTLKISRVEAEDVGVYYCQQTNRYSNPDIYNVFGGGTKLTVLGGGGGSGGGGSGGGGSGGGGSQVQLKESGPALVKPTQTLTLTCTFSGIDFNSNYYMCWIRQPPGKALEWLACIYVGSHVNTYYANWAKGRLTISKDTSKNQVVLTMTNMDPVDTATYYCATSGSSVLYFKFWGQGTLVTVSS |
| 23.6 | 4.3e-05 | 1.82e+06 | 23.6 |  | Vκ2/VH3 consensus (uncapped), human IL23R specific scFv (scFv, scFv VL-linker-VH, made in E. coli; Vκ framework IV (uncapped, full consensus); also called Vκ2VH3 uncapped) scFv: DIVMTQSPLSLPVTPGEPASISCQASENIYSFLAWYLQKPGQSPQLLIYSASKLAAGVPDRFSGSGSGTDFTLKISRVEAEDVGVYYCQQTNRYSNPDIYNVFGQGTKVEIKRGGGGSGGGGSGGGGSGGGGSEVQLVESGGGLVQPGGSLRLSCAASGIDFNSNYYMCWVRQAPGKGLEWVSCIYVGSHVNTYYANWAKGRFTISRDNSKNTLYLQMNSLRAEDTAVYYCATSGSSVLYFKFWGQGTLVTVSS |
| 462 | 0.000363 | 786000 | 462 |  | Vκ3/VH2 consensus (uncapped), human IL23R specific scFv (scFv, scFv VL-linker-VH, made in E. coli; Vκ framework IV (uncapped, full consensus); also called Vκ3VH2 uncapped) scFv: DIVLTQSPATLSLSPGERATLSCQASENIYSFLAWYQQKPGQAPRLLIYSASKLAAGVPARFSGSGSGTDFTLTISSLEPEDFAVYYCQQTNRYSNPDIYNVFGQGTKVEIKRGGGGSGGGGSGGGGSGGGGSQVQLKESGPALVKPTQTLTLTCTFSGIDFNSNYYMCWIRQPPGKALEWLACIYVGSHVNTYYANWAKGRLTISKDTSKNQVVLTMTNMDPVDTATYYCATSGSSVLYFKFWGQGTLVTVSS |
| 22 | 6.38e-05 | 2.89e+06 | 22 | 0.6 | Vκ3/VH3 consensus λ-capped, human IL23R specific scFv (scFv, scFv VL-linker-VH, made in E. coli; also called Vκ3VH3 capped) scFv: DIVLTQSPATLSLSPGERATLSCQASENIYSFLAWYQQKPGQAPRLLIYSASKLAAGVPARFSGSGSGTDFTLTISSLEPEDFAVYYCQQTNRYSNPDIYNVFGGGTKLTVLGGGGGSGGGGSGGGGSGGGGSEVQLVESGGGLVQPGGSLRLSCAASGIDFNSNYYMCWVRQAPGKGLEWVSCIYVGSHVNTYYANWAKGRFTISRDNSKNTLYLQMNSLRAEDTAVYYCATSGSSVLYFKFWGQGTLVTVSS |
| 73.1 | 0.000128 | 1.76e+06 | 73.1 | 0.3 | Vκ1/VH2 consensus λ-capped, human IL23R specific scFv (scFv, scFv VL-linker-VH, made in E. coli; also called Vκ1VH2 capped) scFv: DIQMTQSPSSLSASVGDRVTITCQASENIYSFLAWYQQKPGKAPKLLIYSASKLAAGVPSRFSGSGSGTDFTLTISSLQPEDFATYYCQQTNRYSNPDIYNVFGGGTKLTVLGGGGGSGGGGSGGGGSGGGGSQVQLKESGPALVKPTQTLTLTCTFSGIDFNSNYYMCWIRQPPGKALEWLACIYVGSHVNTYYANWAKGRLTISKDTSKNQVVLTMTNMDPVDTATYYCATSGSSVLYFKFWGQGTLVTVSS |
| 303 | 0.000475 | 1.57e+06 | 303 |  | Vκ2/VH5 consensus (uncapped), human IL23R specific scFv (scFv, scFv VL-linker-VH, made in E. coli; Vκ framework IV (uncapped, full consensus); also called Vκ2VH5 uncapped) scFv: DIVMTQSPLSLPVTPGEPASISCQASENIYSFLAWYLQKPGQSPQLLIYSASKLAAGVPDRFSGSGSGTDFTLKISRVEAEDVGVYYCQQTNRYSNPDIYNVFGQGTKVEIKRGGGGSGGGGSGGGGSGGGGSEVQLVQSGAEVKKPGESLKISCKGSGIDFNSNYYMCWVRQMPGKGLEWMGCIYVGSHVNTYYANWAKGQVTISADKSISTAYLQWSSLKASDTAMYYCATSGSSVLYFKFWGQGTLVTVSS |
| 123 | 0.000288 | 2.35e+06 | 123 | 0.9 | Vκ3/VH4 consensus λ-capped, human IL23R specific scFv (scFv, scFv VL-linker-VH, made in E. coli; also called Vκ3VH4 capped) scFv: DIVLTQSPATLSLSPGERATLSCQASENIYSFLAWYQQKPGQAPRLLIYSASKLAAGVPARFSGSGSGTDFTLTISSLEPEDFAVYYCQQTNRYSNPDIYNVFGGGTKLTVLGGGGGSGGGGSGGGGSGGGGSQVQLQESGPGLVKPSETLSLTCTVSGIDFNSNYYMCWIRQPPGKGLEWIGCIYVGSHVNTYYANWAKGRVTISVDTSKNQFSLKLSSVTAADTAVYYCATSGSSVLYFKFWGQGTLVTVSS |
| 3240 | 0.000288 | 88700 | 3240 |  | Vκ2/VH6 consensus (uncapped), human IL23R specific scFv (scFv, scFv VL-linker-VH, made in E. coli; Vκ framework IV (uncapped, full consensus); also called Vκ2VH6 uncapped) scFv: DIVMTQSPLSLPVTPGEPASISCQASENIYSFLAWYLQKPGQSPQLLIYSASKLAAGVPDRFSGSGSGTDFTLKISRVEAEDVGVYYCQQTNRYSNPDIYNVFGQGTKVEIKRGGGGSGGGGSGGGGSGGGGSQVQLQQSGPGLVKPSQTLSLTCAISGIDFNSNYYMCWIRQSPGRGLEWLGCIYVGSHVNTYYANWAKGRITINPDTSKNQFSLQLNSVTPEDTAVYYCATSGSSVLYFKFWGQGTLVTVSS |
| 297 | 0.000479 | 1.61e+06 | 297 |  | Vκ3/VH1A consensus (uncapped), human IL23R specific scFv (scFv, scFv VL-linker-VH, made in E. coli; Vκ framework IV (uncapped, full consensus); also called Vκ3VH1A uncapped) scFv: DIVLTQSPATLSLSPGERATLSCQASENIYSFLAWYQQKPGQAPRLLIYSASKLAAGVPARFSGSGSGTDFTLTISSLEPEDFAVYYCQQTNRYSNPDIYNVFGQGTKVEIKRGGGGSGGGGSGGGGSGGGGSQVQLVQSGAEVKKPGSSVKVSCKASGIDFNSNYYMCWVRQAPGQGLEWMGCIYVGSHVNTYYANWAKGRVTITADESTSTAYMELSSLRSEDTAVYYCATSGSSVLYFKFWGQGTLVTVSS |
| 455 | 0.000724 | 1.59e+06 | 455 |  | Vκ3/VH1B consensus (uncapped), human IL23R specific scFv (scFv, scFv VL-linker-VH, made in E. coli; Vκ framework IV (uncapped, full consensus); also called Vκ3VH1B uncapped) scFv: DIVLTQSPATLSLSPGERATLSCQASENIYSFLAWYQQKPGQAPRLLIYSASKLAAGVPARFSGSGSGTDFTLTISSLEPEDFAVYYCQQTNRYSNPDIYNVFGQGTKVEIKRGGGGSGGGGSGGGGSGGGGSQVQLVQSGAEVKKPGASVKVSCKASGIDFNSNYYMCWVRQAPGQGLEWMGCIYVGSHVNTYYANWAKGRVTMTRDTSISTAYMELSSLRSEDTAVYYCATSGSSVLYFKFWGQGTLVTVSS |
| 13.7 | 5.43e-05 | 3.95e+06 | 13.7 | 0.4 | Vκ1/VH3 consensus λ-capped, human IL23R specific scFv (scFv, scFv VL-linker-VH, made in E. coli; also called Vκ1VH3 capped) scFv: DIQMTQSPSSLSASVGDRVTITCQASENIYSFLAWYQQKPGKAPKLLIYSASKLAAGVPSRFSGSGSGTDFTLTISSLQPEDFATYYCQQTNRYSNPDIYNVFGGGTKLTVLGGGGGSGGGGSGGGGSGGGGSEVQLVESGGGLVQPGGSLRLSCAASGIDFNSNYYMCWVRQAPGKGLEWVSCIYVGSHVNTYYANWAKGRFTISRDNSKNTLYLQMNSLRAEDTAVYYCATSGSSVLYFKFWGQGTLVTVSS |
| 125 | 0.000157 | 1.26e+06 | 125 |  | Vκ2/VH4 consensus (uncapped), human IL23R specific scFv (scFv, scFv VL-linker-VH, made in E. coli; Vκ framework IV (uncapped, full consensus); also called Vκ2VH4 uncapped) scFv: DIVMTQSPLSLPVTPGEPASISCQASENIYSFLAWYLQKPGQSPQLLIYSASKLAAGVPDRFSGSGSGTDFTLKISRVEAEDVGVYYCQQTNRYSNPDIYNVFGQGTKVEIKRGGGGSGGGGSGGGGSGGGGSQVQLQESGPGLVKPSETLSLTCTVSGIDFNSNYYMCWIRQPPGKGLEWIGCIYVGSHVNTYYANWAKGRVTISVDTSKNQFSLKLSSVTAADTAVYYCATSGSSVLYFKFWGQGTLVTVSS |
| 864 | 0.0013 | 1.5e+06 | 864 | 1.6 | Vκ3/VH5 consensus λ-capped, human IL23R specific scFv (scFv, scFv VL-linker-VH, made in E. coli; also called Vκ3VH5 capped) scFv: DIVLTQSPATLSLSPGERATLSCQASENIYSFLAWYQQKPGQAPRLLIYSASKLAAGVPARFSGSGSGTDFTLTISSLEPEDFAVYYCQQTNRYSNPDIYNVFGGGTKLTVLGGGGGSGGGGSGGGGSGGGGSEVQLVQSGAEVKKPGESLKISCKGSGIDFNSNYYMCWVRQMPGKGLEWMGCIYVGSHVNTYYANWAKGQVTISADKSISTAYLQWSSLKASDTAMYYCATSGSSVLYFKFWGQGTLVTVSS |
| 166 | 0.000616 | 3.71e+06 | 166 | 8.3 | Vκ1/VH1A consensus λ-capped, human IL23R specific scFv (scFv, scFv VL-linker-VH, made in E. coli; also called Vκ1VH1A capped) scFv: DIQMTQSPSSLSASVGDRVTITCQASENIYSFLAWYQQKPGKAPKLLIYSASKLAAGVPSRFSGSGSGTDFTLTISSLQPEDFATYYCQQTNRYSNPDIYNVFGGGTKLTVLGGGGGSGGGGSGGGGSGGGGSQVQLVQSGAEVKKPGSSVKVSCKASGIDFNSNYYMCWVRQAPGQGLEWMGCIYVGSHVNTYYANWAKGRVTITADESTSTAYMELSSLRSEDTAVYYCATSGSSVLYFKFWGQGTLVTVSS |
| 199 | 0.000478 | 2.4e+06 | 199 | 1.2 | Vκ1/VH1B consensus λ-capped, human IL23R specific scFv (scFv, scFv VL-linker-VH, made in E. coli; also called Vκ1VH1B capped) scFv: DIQMTQSPSSLSASVGDRVTITCQASENIYSFLAWYQQKPGKAPKLLIYSASKLAAGVPSRFSGSGSGTDFTLTISSLQPEDFATYYCQQTNRYSNPDIYNVFGGGTKLTVLGGGGGSGGGGSGGGGSGGGGSQVQLVQSGAEVKKPGASVKVSCKASGIDFNSNYYMCWVRQAPGQGLEWMGCIYVGSHVNTYYANWAKGRVTMTRDTSISTAYMELSSLRSEDTAVYYCATSGSSVLYFKFWGQGTLVTVSS |
